Our source for the EC50 and IC50, microneutralization assay with authentic virus values is patent US20240209065A1.

Like-named read-outs stand apart in the source and are kept apart here.

Broadly, the EC50 is the concentration at which the effect is half-maximal.

In assay [1] the target is SARS-CoV-2 Omicron BA.4/5 RBD, aa 319-541, C-terminal 6xHis-tag (SARS-CoV-2) (UniProt P0DTC2).
The target in assay [2] is SARS-CoV-2 Omicron BA.2 RBD, aa 319-541, C-terminal 6xHis-tag (SARS-CoV-2) (UniProt P0DTC2).
Assay [3] concerns the target S protein of authentic SARS-CoV-2 Omicron BA.5 virus (SARS-CoV-2) (UniProt P0DTC2). The assay can be described thus: cell-based or functional assay.
For assay [4], the target named is S protein of authentic SARS-CoV-2 Omicron BA.1 virus (SARS-CoV-2) (UniProt P0DTC2). The assay can be described thus: cell-based or functional assay.
Assay [5] concerns the target SARS-CoV-2 Omicron BA.2 RBD, aa 319-541, C-terminal 6xHis-tag (SARS-CoV-2) (UniProt P0DTC2). The assay can be described thus: ELISA, plates coated with RBD.

In the case of DXP-604 IgG (antibody), the EC50 in assay [1] stood at 1.6 nM; in assay [2], 9.48 nM; in assay [5] it was 9.48 nM. Besides, the values for the IC50, microneutralization assay with authentic virus in assay [3] and in assay [4] were 12.4 nM and 22.9 nM, respectively.
